The DeepSol protein solubility set

Experiment: soluble on expression in E. coli; label from the status in PepcDB or PDB records

Sequence	soluble on expression in E. coli
MSSDTGSEYLDEEIRGDELGPSIDDNALAAAASAARLPFDRPTDHELAFFPELWEHKTAVEVFLLLRNSTLATWQYNPLKECTALDVRNNVFPPFNSDLDLIQNIVHYLSRHGLINFGRYVRSTKISRFLVRDRRSVIVIGAGAAGISAATQLESFGFDVIVLEARNCIGGRIHSFKSKSGEIMETGGDTLRKIEDSPMATLLHQVNFEEHGVFDFTSVFVEGRPLNEEKIHLFLDHYKSAHGALNYQAHQCEHRDDQGSFISRQQAYENLLSMCERGTLIKYYNFCKSLETVARAREHHFNQMKQLRMTALMAENQLKKMEEEGNLEQDPVLRRSLKRDIATSLEKFEEVADAFETADNHWQRLNEHPQAKQYMHPGSEFATFNFMLGFEEYLVGAQLEKVQFSCDSMQNKENGVAARLTEGIAELLTQLSEKRKLDIRLKHRVLDIDYSGFEHVLLKVQRENGDIEEMKAAFVVSTLPIGVLKKTIIADERAPTFTPSLPDKKVEAIRNIGCGSVNKCILEFDRVFWTANGGRNQFVTVSPNIKTRGSMNIWSSVPGSKVLCTYIVGEEAMLELPDDVIIQNAMINLQKAFGNNCPRAPISAHITRWHDDELAFGSGAFMSLRTETTSFDDVMEPLKTSDGMSRVYFAGEHTCSSYTSTIQGAWMSGARAAADISNDHIGIGFVDISGTRGQRGDEEEELLIEVDIDGKIPEKDENEAVADIPNAPNAPNAQKPEEIPKIAEEIELVAEAEKAEKAEVQLEPLVPTVE	not soluble
MSSETRRKILEAARKAFSKYGYDGVSMEEIAREAGVKKALIYYYFPSKDKLFEEVWREALEELESHLFAVTEETNSYFAKIKKFLKSYVDFVLNKTVLNEIIEKEKSTVRFEEEKWSKLRERYESFIKRVEELIEEGKKQNYVYKDLDSRAAAELIVNSFGDVPKDKRLLQNIQEMILRGLLNVKTEEGR	not soluble
MSSEWDNKIIPVIGVPLEARKLPSARIPKKPKETDGNSTETVVNSTEKPEERKEKPPKPPKQKQKQKQNLNNKFLKNLITDTGKPASMNGLFVAEEEAKLTLLEKKAMKIHIEENTLSDPQFPTYTTKHQGRIKFKCRLLWLLNKETFMKRANKPHLANIVVKQAHMEAVPPKQNVNQKKQMKNQEKNKNAKPLMDIKFDEKARSFKQRTGEDYNGGFDISSNYQGSEGSGGYQHIGNTWPNTESQWNYDPSTNGYSTFLASTPDTSTTYQPYQPSEYANFSRQLESSSSSVPVYGGATDPTQTSTSSVISFGVAVHEPISESSASAYDDPTRNHWNPQSATSDYSTVPTSGTSNVFPSYQTSEYSSFPNQTPSSSSSYQQSSQYTPMVPDLINQAINGYTTPQYNQPNQQVNQDFNTNQFSASLASLHSQPLEASEDELLRQKRLMEIEQELHMINAKKMHMQMEAEIRHREMELAKRQQLMELRERELRDRECFENGRTHAGHTGQHNYDNREYSSHHESKNPSVGGNYSSTSRSISINEDPAASHYYGQRVERKKRLGGELARRQGRVYEEVSSPGPLKRSADQSRAGSIQPAEGPSRKQRRRNNKNVQVTVNMEDISDDEEV	not soluble
MSSHKEEPLEADVDQLTQYRERCADHVTEFKSILDECNDRVNSRSNTEETCHQEMADYVHHLDHCAMPKAFASLK	not soluble
MSSILIIGAGPTGLGAAHRLRGLGLENWHLFESTEQIGGLSASFVDDHGFTWDVGGHVLFSHYDYFDRVVEEALDGAWYEHQRECWVRIRETWVPYPFQNNIRHLPPDALEECLAGLKGLAGSPSLAANFREWMDRVFGAGIVKHFMEPYNRKVWGVPLHEMSREWIGERVSVIDLARIEKNIAEKTDDVNWGPNNTFKFPHKGGTGAIFSSIATRFQDRISFSHELTEVNLAARELGFSNGRRERYDSLITTIPLDIFIGLCRDVPESVREAASRLVHNSGLIVGIGVEGERRDSKCWMYFPEDNCPFYRVTNFHNYSPWNVPNGDTSRFFSLMCETTSSPHKPVNRAEIVETTIQGLINAGMLTESERERIISRYVIDIPYSYPVPTVGRDEALAVINPFLESQGVYSRGRFGAWKYEVGNMDHSFMQGVEVADRILNGADEPTVTGKGGDRLEHHHHHH	not soluble
MSSKKNFEVGENVACIYKGKPYDAKITDIKTNSDGKELYCVHFKGWNNRYDEKIPVGEEKDRIFKGTASEYAEKHNAELPTTALKPKKKSLAAEAPRDDRDDTPGTSKGKKAKSVTIAPVMTADDMKVELPKPLRKILIDDYDLVCRYFINIVPHEYSVDQIIEDYIKTIPVSNEQMRTVDDLLIEYEEADIKITNLALICTARGLVDYFNVTLGYQLLYKFERPQYNDLVKKRAMEKGIDITNPTALQDSGFRPSQEYGIVHFLRMLAKLPDYLKLTQWNDHVINRIMIGVHDLIVFLNKNHGKYYRGSSDYQGASNDYYRRSLAADDGVGANQ	not soluble
MSSMEGKKVPQVTFRTRQGDKWVDVTTSELFDNKTVIVFSLPGAFTPTCSSSHLPRYNELAPVFKKYGVDDILVVSVNDTFVMNAWKEDEKSENISFIPDGNGEFTEGMGMLVGKEDLGFGKRSWRYSMLVKNGVVEKMFIEPNEPGDPFKVSDADTMLKYLAPQHQVQESISIFTKPGCPFCAKAKQLLHDKGLSFEEIILGHDATIVSVRAVSGRTTVPQVFIGGKHIGGSDDLEKYFA	soluble
MSSPSGSSRTFPQYQSGSGWNAMLPKRTPRTAAPARRHFKSLVIGAGYTGLAAARRLAELQPQDQVLVVDATVAGEGSAGRNSGFLINLPHNTRMSGHHSPLEVARKQIAMLQSGLDWLAQLSGQGGFDCGWDLAGKYHAAATADGEQSLRGALQQYGQWGVAFSELDRDALQAQLGTRYYRFGYHSMNNVFVQPAALIRGLADSLPENVWLMEDNPVLSIDGSGPYKVRTRGGEFTADNVILANNAFARRLGFLRSRLVTIFTYAGVTPVLSPAQQALLGERDQWGVIPANRLGTTLRRISGGRFMVRSAYSYEAEQPLERMEQLLRDSFVRRYPDLAAHDFEYVWSGSTGLTGNGASFVGAIQPGLYASVGCNGAGVIKGTIYGKLLGEQVAGHRSAMLDDLASFEKPNWLPPEPLRRIGALSTIAYQARKAGLEKLEHHHHHH	not soluble
MSSQIRGSKQHEDVDPVTIKKIEEAYVMLNGPDGAKCSSLLKKNLTKDVIEKLKTKSTKLGANLYDCIRSGVYCLDALVGVYAPDAEAYTLFAPLFDKIIEDYHGLGPDQKQPPVDLGEGKTKEFPPLDPKGKYIKSTRIRCGRSLNGYQFNPCLTEDNYLEMEEKVKKAFSEFSDEELKGTYYPLDGMSKDTQNQLIADHFLFKEGDRHLQYANACNFWPKGRGIFHNNKKTFLIWVNEEDHLRIISMQEGSDVGAVLERLIKGVRGIEKQVQFSRDDRLGWLTFCPTNLGSTVRASVHIALPKLSAREDFKQICDKLDLQLRGIHGEHSESEGGVYDISNRARLGLSEYEAVKKMYDGVKNLIEMEEKET	not soluble
MSSSPSLPSSASVPAAFDRAPVSGLPDNAIEIDALRKVYGGGKVALESLSLAIPRGSFFGLLGPNGAGKSTLINIMAGLVRKTSGRVRIWGNDIDTDERAARCAIGIVPQELSFDPFFTPREMLDVQAGLYGVPKAERRTLEILRAVGLEDKADAYSRTLSGGMRRRLLVAKAMVHSPPILVLDEPTAGVDIELRQQLWAYVRDLNARGTTVLLTTHYLEEAEELCDRIAIIDHGKVVVSEPTTTLLGRLDNKSLTLRLAQPLDAPPPALAALGAELRDPYHLVITYHPSSLPMARILDAARAGGLTIADLTTREADLEDVFLRLTSSHHRAQEIGLEHHHHHH	soluble
MSSSPVKRQRMESALDQLKQFTTVVADTGDFHAIDEYKPQDATTNPSLILAAAQMPAYQELVEEAIAYGRKLGGSQEDQIKNAIDKLFVLFGAEILKKIPGRVSTEVDARLSFDKDAMVARARRLIELYKEAGISKDRILIKLSSTWEGIQAGKELEEQHGIHCNMTLLFSFAQAVACAEAGVTLISPFVGRILDWHVANTDKKSYEPLEDPGVKSVTKIYNYYKKFSYKTIVMGASFRNTGEIKALAGCDFLTISPKLLGELLQDNAKLVPVLSAKAAQASDLEKIHLDEKSFRWLHNEDQMAVEKLSDGIRKFAADAVKLERMLTERMFNAENGK	soluble
MSSSTSSVESVEDESCSNECSASFTFDTNNNSRGNNQVNELAEETHMKLSITPTRESFSLSQLERIITIGKGTFGRVELARDKITGAHYALKVLNIRRVVDMRQTQHVHNEKRVLLQLKHPFIVKMYASEKDSNHLYMIMEFVPGGEMFSYLRASRSFSNSMARFYASEIVCALEYIHSLGIVYRDLKPENLMLSKEGHIKMADFGFAKELRDRTYTICGTPDYLAPESLARTGHNKGVDWWALGILIYEMMVGKPPFRGKTTSEIYDAIIEHKLKFPRSFNLAAKDLVKKLLEVDRTQRIGCMKNGTQDVKDHKWFEKVNWDDTLHLRVEPPIVPTLYHPGDTGNFDDYEEDTTGGPLCSQRDRDLFAEW	not soluble
